From article PMC6529640, “Bacterioferritin of Magnetospirillum gryphiswaldense Is a Heterotetraeicosameric Complex Composed of Functionally Distinct Subunits but Is Not Involved in Magnetite Biomineralization” (mBio, 2019)

Target: the molecule itself
Test: native gel or EMSA; BN-PAGE of purified proteins on polyacrylamide gradient gels, run at 4°C, Coomassie stained; Bfr2 and Bfr12 ~22 μM, Bfr1 ~30 μM in 50 mM Tris-HCl, 50 mM NaCl, pH 8.0, or Bfr12 dialysed against 50 mM imidazole-HCl, 50 mM NaCl, pH 7; for Bfr12 also a second dimension of SDS-PAGE (2D-BN/SDS-PAGE)

B1: Bfr1 of MSR-1 expressed alone from pET-51b-Bfr1 (natural protein, Magnetospirillum gryphiswaldense MSR-1, UniProt A0ACM8UIY5 1-159, looked up)
chain: MRGSPKVISVLNGLLTGELTAADQYFVHARMLENWGFKVLYERIEHERHDELDHAGLLINRILFLEGVPDVASRAALNIGSDVPKMMANDLAYELQVVDELKAAIALCESERDYDTRRILVHLLEETEQDHVRWLEVQVGLIDKLGLKNYLQSAAGEIA
notes: bacterioferritin subunit Bfr1, Magnetospirillum gryphiswaldense MSR-1, locus MSR1_27050; expressed without Bfr2
stoichiometry N: 3
